Data from article PMC7486399 (2020).

Legend:
[1] = molecular target: SARS-CoV-2 spike glycoprotein S1 subunit (SARS-CoV-2, UniProt P0DTC2 14-685); assay: BLI
[2] = molecular target: SARS-CoV-2 spike glycoprotein receptor-binding domain (SARS-CoV-2, UniProt P0DTC2 319-541); assay: BLI

B1: angiotensin-converting enzyme 2 (ACE2) protein, purified (receptor)
chain: QSTIEEQAKTFLDKFNHEAEDLFYQSSLASWNYNTNITEENVQNMNNAGEKWSAFLKEQSTLAQMYPLQEIQNLTVKLQLQALQQNGSSVLSEDKSKRLNTILNTMSTIYSTGKVCNPNNPQECLLLDPGLNEIMEKSLDYNERLWAWEGWRSEVGKQLRPLYEEYVVLKNEMARANHYKDYGDYWRGNYEVNGVDGYDYNRDQLIEDVERTFEEIKPLYEHLHAYVRAKLMNAYPSYISPTGCLPAHLLGDMWGRFWTNLYSLTVPFGQKPNIDVTDAMVNQAWNAQRIFKEAEKFFVSVGLPNMTQGFWENSMLTDPGNVQKVVCHPTAWDLGKGDFRIIMCTKVTMDDFLTAHHEMGHIQYDMAYAAQPFLLRNGANEGFHEAVGEIMSLSAATPKHLKSIGLLSPDFQEDNETEINFLLKQALTIVGTLPFTYMLEKWRWMVFKGEIPKDQWMKKWWEMKREIVGVVEPVPHDETYCDPASLFHVSNDYSFIRYYTRTLYQFQFQEALCQAAKHEGPLHKCDISNSTEAGQKLLNMLKLGKSEPWTLALENVVGAKNMNVRPLLNYFEPLFTWLKDQNKNSFVGWSTDWSPYADQSIKVRISLKSALGDKAYEWNDNEMYLFRSSVAYAMRTYFLEIKHQTILFGEEDVRVADLKPRISFNFYVTAPKNVSDIIPRTEVEEAIRISRSRINDAFRLNDNSLEFLGIQTTLAPPYQSPVT
With B1 the Kd [1] was 146 nM and the Kd [2] was 149 nM.
